Assay results as given in the supplement of paper PMC9170038.

System: MS2 coat protein
Experiment: apparent KD of MS2 coat protein; designed switch direction (-1 OFF switch, 1 ON switch): 1; higher = weaker reporter binding
Procedure, shortened: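 Three titration conditions were used: no input, 200 uM small-molecule ligand, and an oligonucleotide input. In each, SNAP-549-labelled MS2 coat protein was raised from 0.7 or 1.5 nM, doubling, to 3 µM over designed RNA switches transcribed on Illumina chips by stalled E. coli RNA polymerase. Curve fits of normalised cluster fluorescence gave values whose per-design median over clusters is the apparent KD.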

[1] = input ligand: microRNA oligo, concentration not stated
[2] = Eterna round: R95, input ligand: FMN 200 uM
[3] = Eterna round: R95, input ligand: microRNA oligo, concentration not stated
[4] = Eterna round: R95, input ligand: none

Sequence | apparent KD of MS2 coat protein (input ligand: FMN 200 uM) | apparent KD of MS2 coat protein [1] | apparent KD of MS2 coat protein (input ligand: none) | apparent KD of MS2 coat protein [2] | apparent KD of MS2 coat protein [3] | apparent KD of MS2 coat protein [4]
CGGACUCCCUUAGGAUAUGGGAAAGGAAGUGUACCAGAAGGAAGGGUUCCGAUCCUCCAACAUGAGGAUCACCCAUGUAUGAGG [PowerStrip SSNG 1.3] (Eterna round: R96, puzzle: Same State NG 1) | 16.3 nM | 21.3 nM | 22.6 nM |  |  | 
GGUUUAGUCGAGUGCCAUUCCACUCGAAAACAUGAGGAUCACCCAUGUUUGGGACAAGCUUUGCUCCUCGUCUUUCC [Inertequ] (puzzle: Sensor for hsa-mir-208a) |  |  |  | 259 nM | 75.8 nM | 371 nM
AGCUAUUAAUCAGGAUAUGGUCACAUGAGGAUCACCCAUGUAUCGAUGAUAUGAUGUGGUCAAUACUAGAAGGGAUUGCUAACA [SameState NG2 #64] (Eterna round: R96, puzzle: Same State NG 2) | 180 nM | 104 nM | 152 nM |  |  | 
AGCUAUCGAAAACGAUAGCAAAAGCAUGUACAUGAGGAUCACCCAUGUCAUGUGCAAGCUUUUUGCUCGUCUUAAAA [Zipper 23 - 4] (puzzle: Sensor for hsa-mir-208a) |  |  |  | 163 nM | 10.7 nM | 208 nM
GGAAUAUUUACAGGAUAUGUUUUGUUAAGUCGAGCAGAAGGGUAGAUGUCUUACACGGUUUGUUACAUGAGGAUCACCCAUGUC [SameState NG1 #16] (Eterna round: R96, puzzle: Same State NG 1) | 26.4 nM | 80.3 nM | 126 nM |  |  | 
AGUCCAGCCUGAGCUGGACAAAAGCAUGUACAUGAGGAUCACCCAUGUUCAUGUACAAGCUUUUUGCAAGUCAAAAG [Mat - hsa-mir-208a - Mod of JL - 75] (puzzle: Sensor for hsa-mir-208a) |  |  |  | 337 nM | 25.6 nM | 710 nM
UUUUUUUUUUCGAGACAAGCUUUUUGAUCACAUGAGGAUCACCCAUGUCUCGUCUUAUUUUUUUUUUUUUUUUUUUU [BA Sensor hsa-mir-208a - 2 - 1] (puzzle: Sensor for hsa-mir-208a) |  |  |  | 343 nM | 33.6 nM | 21.3 nM
GGUCCAGCCUGAGCUGGACAAAAGCAUGUACAUGAGGAUCACCCAUGUCAUGUACAAGCUUUUUGCUCGUCAAAAGG [Mat - hsa-mir-208a - 102] (puzzle: Sensor for hsa-mir-208a) |  |  |  | 54.3 nM | 16 nM | 89.5 nM
UUCUCACAUGAGGAUCACCCAUGUGAGCCUCUGUGAGGAUAUCCGACAUAAUUAAUUGAAGGAGAAGGUACACGAG [Leer] (puzzle: Same State 1) |  |  |  | 130 nM | 4.78 nM | 24.9 nM
GUAGCAUACCGAGGAUAUUCAUUAAACAUGAGGAUCACCCAUGUAAAUUAUAGGCGAAAGCCUUGGGAGAAGGCGGAAUGCUAC [Xeonanis - 20 Mod72] (Eterna round: R96, puzzle: Same State NG 2) | 11 nM | 11.3 nM | 19.1 nM |  |  | 
ACAUGAGAGUGAGGAUAUACUGUACCUACAUGUGACAUGAGGAUCACCCAUGUGGUAAGUAUGACGUAGAAGGCACAGAUAUGU [Equivalance 79 - Jieux - Same State NG 2] (Eterna round: R96, puzzle: Same State NG 2) | 33.1 nM | 118 nM | 182 nM |  |  | 
GCUAGGAAAGAAGCCAACAUGAGGAUCACCCAUGUAUGUUGGUAGGAUAUCGUUUGCAAAGCAAACGAGAAGGGCUAACCUAGC [Mat - Same State NG 3 - JL Mod - D73] (Eterna round: R96, puzzle: Same State NG 3) | 202 nM | 203 nM | 184 nM |  |  | 
AGUCCAGCCUGAGCUGGACAAAAGCAUGUACAUGAGGAUCACCCAUGUCAUGUACAAGCUUUUUGCUCGUCUUAGAA [Mat - hsa-mir-208a - Mod of JL - D26] (puzzle: Sensor for hsa-mir-208a) |  |  |  | 624 nM | 16.7 nM | 756 nM
AUACAUAUCAGAGGAUAUCACGUCGAUUAGACGUGAGAAGGCUGAUCACACAUGAAUAUUAAUACAUGAGGAUCACCCAUGUAU [SSNG1/14-A2] (Eterna round: R96, puzzle: Same State NG 1) | 20.6 nM | 14.8 nM | 18.8 nM |  |  | 
GCAGCACAUGAGGAUCACCCAUGUCUUCGGAGUCGAGGAUAUGGUCACUGUAAACAGUGGCCAGAAGGCGAGUUGC [SS1 - Son of Teenbexe v5] (puzzle: Same State 1) |  |  |  |  | 24.3 nM | 
